We go through 34 sequences from the NTF2 design screens of Basanta et al. (2020).

The nature of the data set: protease stability score; higher = more stable; yeast display proteolysis, trypsin and chymotrypsin.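 Further: relative to predicted unfolded state with 0 unfolded-like and 1 meaning tenfold more protease.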
With “DEEERDISRWLDHLIESLETGDEDSLQHLLDPHVRVVVNGKDHHGWKALTKMLRQLRVNRIRIRDFEIIGDKIEVDIRMHVRVGDKHYVFNVDLVARKIDGRWIMHNITIH”, the protease stability score came out at 2.19.

As to “SEDEEFMRHKSELYLEMLKTGDEEELERLFDPNVRLHIGDKNQHGREQFSHFFSKLHKELGVDHLSFEHIHLEVVNGRLIIIMRVHLHVGDKVHDREISIDASKVDGQWLVQSVHIHVR”, the protease stability score came to 0.121.

Sequence “SEEEETLKRLAHHMYESYITGDERVIKHLVDPNARSRIGEFDDHGREATEELIRRIDHVHHIDIRDMKIQGNWLHLHVRVDGVVDGKRTEHDMEIIVLKVDGKWIVHSMIQR” displayed a protease stability score of 1.05.

For the sequence “DEEREELHRHIKILNKAWTTGDERLLYELMDPHAKINIDGVDFIGREEATEEYHHRWRHLGVDHFEVRFTEIHDIDGRLHMQTKLNLIVNGQREERHTRVHVRKINGRWLVHNLEIR”, the protease stability score is 0.125.

Consider “SEEDEELREMARLIILLEWTGDEETFEHLADPHVRSHINGVHLHGRETVSKWLMHVREHLRFNDIRIRDLWVFNGKVKINGEYDGHVNGRRIRYTVHLYFVIIDGRIREISREHR”, for which the protease stability score was 0.301.

“DEDEETAIRVVKEFWKAVMTGDERHLKEYFDPHTRLDVDGQDQHGREDLTEFMFHMRVERTTIHNWRLQGDYVYLHVHVVGQINGKSKETEFYIVVFKINGRWSIHHITIR”: the protease stability score came out at 1.33.

Regarding “DEEEAHTRHILELFKHNYHTGDEDLFRRLLDPNVRLHIDGVNIHGREEVVEVLVKLAHEIRVELRVKHIRIINGVAEVDIELTIHQGDKHESRKIHLFILKVNGRWRVESIQWR”, the protease stability score was 1.42.

“SEEHRLSEEIARIEVHAWITGDEHILHELLDPNTRLEVNGREYHGREIVLKMIREFWENLGAKHREVKRVRIELIDGRVTTHIKDKVSQGDKELEIIIEIITEKVNGRWVIRNMRIELR” had a protease stability score of 2.7.

“SDEERHAEFVSRRILHALRTGDWEILFKMADPNVKSTIGDKHHHGWEIMSDMYKKLWEDLGVKHLDLKRITYVDGVVHIDERIRIGDKTHNVELNFVVIDGVLRSVEVHVR” showed a protease stability score of 1.14.

As for “DEEEEHWKHIAKEYLDNFRTGDWKNFMDNADPDYRFILSQGNKEDNHHGMHFFVEWILRFLKKFKNATFVLRHFSIQGNKIHMELDITVGDKRIDTKINIEIIDGVVHTIEIRLD”, the protease stability score is 0.821.

The sequence “SEEEELATEIFRKWIELLETGDEHTFRELADPDYRLIILYGDFIINDIGRERAIERWKQHLKQFDHWEIIIDRERVVNGVVHVDGILVLRINGREHNRRVKIELFIFDGRMKEVDIHID” registered a protease stability score of 2.6.

In turn, “SHVKEIIRHFFDELVRRRETGDEEVLKELADPHTRLRVGEKEIHGWDEILTRFITWLEIHGAEYTDHRIHDIRVVGEKVHVESEIDIDYNGKHVEHHFEIVVEKINGRWRMKSIFVS” registered a protease stability score of 1.27.

On to “DDEERILHRIKELFEAAMHTGDWRLEFQQADPHTRVEIGDKEIHGMENIFDMLEDFWRELGIDQIDVEVRDEDSHIQGDKIILHVDITLRYNGVQERFKSTIILQKIDGRWHKKTEHRG”, for which the protease stability score turned out to be 1.16.

As to “SKEEEHAYRVMEIILKQHLTGDEEEISRLLDPHVKMDVDGVILHGRENASRWLFEWIRFFKGLRLHIHIEDIQVQGEKSHHHTRLHITINGRTQNYRFKVHAVVVNGQIKHFELDWD”, the protease stability score amounted to 1.39.

Take “DEHEELMRRLMQLWMENWLTGDEDVLYKLADPNAKWDINGVKLHGREKMNEDRKEILERHGATFYLEIRDFTVINGRAHVDGHEDYIINGKRIRTDVQIILVIVNGKFKSEEVKIR”: the protease stability score is 0.292.

In turn, “EEERETDHRLTEKLRRIIRTGDEEEWSKLVDPNTRVIYGDKQDHGWEAWVRILKDLGAKHIDIEHVDIVNGRVEIHSHLTIGDKHVIIHHRIVHINGKLTEIYIEIHHK” returned a protease stability score of 0.694.

“SEDEKDAEKMSERFLHMFITGNEELFRDLADPHTRLKVNGVHNHGREHVEILNKEFLTRLGVNYYEEHDVRYRVIDGVVFIDIVGHMNIDGQETEVTLHWRVLKVNGRWRITEVDIRRH” yielded a protease stability score of 1.64.

In turn, “SEIHDLITTMSRLFWDVIRTGDFEALEKLLDPHTRFEFLIGDKTEEYVGRHNVVRAIMDIWERLGIDHMHLKNVRYQGEKSDIDTEMHFDGRTFDTKIIIVVIDGKLHNVSIEFR” showed a protease stability score of 1.39.

For “SEEEKILDKLMELLSRLVHTGDEKEWADLMDPDTKLHVGDKTYIGMEKVTEFLHEMRVHHLELHDKRVIGDKARVHTNLRGVIDGRDVNLETHMIITKINGKWVIHSVEVR”, the protease stability score turned out to be 1.02.

In turn, “DEEEENSRRAIEIVLQHMETGDEKTLEELVDPHVKLHYGDKTSHGRHHVAHLIMRLGVKHSRVEHVDSQGDKVFFFTRMRIGDKHFDTRVILLKVDGKWQIHELKFD” displayed a protease stability score of 1.96.

As to “DEMEESAERMIEIYLRWLETGDEDSLVENIDPNVRVEIGDKRYHGREEVMHFLSSIQQRIKGARFHLKHFEIQGEYVDIHMEQRVGDKTMDRRVIFQKIDGRWLLKRSQVR”, the protease stability score amounted to 1.5.

“DSHRELLERFARLMLHLWLTGDEDELHKYMDPHVRYHQGEFHIHGREEVTRWASELHKKLGINHEDQERVNIYDGKNHVDTRLDINGRHLRVELRIDVWNGRIREVQVHHR” returned a protease stability score of 1.41.

In turn, “SELEEWLFHFVKRFIRAELTGDEEEMLHLLDPNARMIIGDKHIHGRENIMELVRHFWHEIRIDHIEIKHVDFQGDKVIIHGQSDGQINGQRTTVDVRIQLIIINGRLKLLEFDNR” returned a protease stability score of 1.71.

For the sequence “DEDERISRNFVRLILHAIRTGNENMIKTMADPNDRLEVGDKEFHGRELALEFWFRFDVLKEFHIRSVHSQGDKLHIEGESTWVIGDKEIRTTEHRLIIKIDGQWVLTEIKME”, the protease stability score came out at 1.62.

Consider “DKEKEDAVRIVEHWIEALLTGDEHELKKYLDPEVRVEINGRDIHGMHLWSEHFKELRHEELHIHIRTVHVFDGKMSVEGELRIVGEVDGRRTDIIYHTEIEIEKVDGRWHIHHIHLR”, for which the protease stability score was -0.195.

The sequence “SDLDKLAIKIAKILVKNLETGNEKMLEHLLDPHVKLHIDGVTFIGREEVNKWVKHELDEMRSRWEVHDRRTQGEYAHTDSRMYLHINGKDIEIEVTIIFNVVNGRVTFIEHRIH” yielded a protease stability score of 0.084.

With “SEEEEYFRFVAEEFLKAWSTGNEEILERLFDPRVRLSFNGKQFHGRERVHDKLMQLLEHLGINHTRIDDREFRIIGDKAEIRIDLILHVGDKTLRVEVILIITKVNGVWMMKEVELRIH”, the protease stability score was 1.51.

“DETREHTEHIMNIILHALHTGDEHLIRDMIDPHVRWELIIDGQTHNHIGRDEWEKLLEELGIDRIEVILKRFRIFENHSEVKGTIHINGKDADVVIYILVINGKIKEIRIIHV” yielded a protease stability score of 2.19.

As for “NEMHDFAKLAIELLLKSLKTGDEHTLEHLLDPNVRMNIDGRRWHGRENWVKRVHDLGITTRDFKLTDVKNQGNKVHIDGHAVEEVNGQRIERRVEIISVKIDGKWEIEEIRIE”, the protease stability score came out at 1.02.

Turning to “SEDETLAEEAVEEFEKHMETGDEDELIRLVDPHVKIHFNGRDIHGWKWIHVFLRDLGVDVKRIHVKDIEVFNGVVLLRGEFRFRFNGQDFSKDVENIIVKVDGRWFHHEIRIR”, the protease stability score turned out to be 1.85.

In turn, “SELHEEAEELTEKIIRILLTGNEHFFSELVDPDVRTNVDGKELHGREEALRKFEEMRRKLGYDRVRVELRKYTVFDGRVEVVTELNVNGRRLEYIWRMHKVDGRWSLHIWEIR” showed a protease stability score of 2.65.

Sequence “DEEQRHAHKIVDRLLELIMTGDEDDLYRLADPNTRIDINGKKFHGMDFWFHLLRRVDHFEVEDFSLKRSDRVDGVAELDHRTTIRVIIGDKTIRLEIRHRMWVVKVDGRWKIEEVVIR” gave a protease stability score of 1.04.

On to “DEERKHSEDLKDMHLKSMLTGDEEFISHLADPNVRIVFNGRDLHGRELLHEILKRINEELGVSNIEVRLHHIEIVGEWVHIHGRLHWNGRTSRIHLLLFKIDGQWNIKSIHIEIE”, for which the protease stability score is 1.22.

Turning to “DKTEEDAKRWAEHFSHNMETGNEEKIIDLADPNTRLEVNGRHVHGREEFSRFWKELSDRVDHIRIQITRISIIGDKIRIDSRIFLHINGKEMIVESVLISEKVNGRWMMREIDIR”, the protease stability score was found to be 1.84.
